This test has as its target human parathyroid hormone receptor 1 (hPTHR1) (human) (UniProt Q03431). Briefly: cell-based or functional assay.
human parathyroid hormone receptor 1 (hPTHR1) (human), sequence (Q03431 27-593): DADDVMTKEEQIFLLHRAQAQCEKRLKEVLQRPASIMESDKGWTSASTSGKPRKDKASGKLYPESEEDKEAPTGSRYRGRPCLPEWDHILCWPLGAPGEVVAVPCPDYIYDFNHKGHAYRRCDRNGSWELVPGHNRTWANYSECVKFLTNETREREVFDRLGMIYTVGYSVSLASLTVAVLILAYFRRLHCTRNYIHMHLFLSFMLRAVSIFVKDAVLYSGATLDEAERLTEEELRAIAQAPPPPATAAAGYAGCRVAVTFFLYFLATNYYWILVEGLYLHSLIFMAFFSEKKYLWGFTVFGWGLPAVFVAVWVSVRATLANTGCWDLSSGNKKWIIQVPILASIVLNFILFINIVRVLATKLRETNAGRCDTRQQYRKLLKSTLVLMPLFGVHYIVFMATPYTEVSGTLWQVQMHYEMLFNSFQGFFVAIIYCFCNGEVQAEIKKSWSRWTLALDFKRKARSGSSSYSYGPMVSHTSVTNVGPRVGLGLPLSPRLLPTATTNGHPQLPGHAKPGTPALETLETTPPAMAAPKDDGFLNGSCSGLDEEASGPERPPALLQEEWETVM
Take “Nle8, TMR, dW12, C35-bPTH(7-35)-1977 (peptide)”: the IC50 (nanomolar value of the pIC50), antagonism of PTH(1-34)-induced cAMP response, GP-2.3 cells was found to be 2800 nM and the pIC50, antagonism of PTH(1-34)-induced cAMP response (GloSensor), GP-2.3 cells was 5.55 -log M.
The substance “Nle8, TMR, dW12, W23, C37-LA-PTH(5-37)-1975 (peptide)” had an IC50 (nanomolar value of the pIC50), antagonism of PTH(1-34)-induced cAMP response, GP-2.3 cells of 3610 nM; an IC50 (nanomolar value of the pIC50), antagonism of PTH(1-34)-induced cAMP response, SGS-72 cells of 12 nM; an IC50 (nanomolar value of the pIC50), antagonism of PTHrP(1-36)-induced cAMP response, SGS-72 cells of 10 nM; an IC50, antagonism of PTH(1-34) (0.3 nM)-induced cAMP response, SGS-72 cells of 20.3 nM. Further, the IC50, antagonism of PTHrP(1-36) (0.3 nM)-induced cAMP response, SGS-72 cells stood at 9.71 nM; the pIC50, antagonism of PTH(1-34) (0.3 nM)-induced cAMP response, SGS-72 cells was 7.69 -log M; the pIC50, antagonism of PTH(1-34)-induced cAMP response (GloSensor), GP-2.3 cells is 5.44 -log M; the pIC50, antagonism of PTH(1-34)-induced cAMP response, SGS-72 cells was 7.91 -log M. Further, the pIC50, antagonism of PTHrP(1-36) (0.3 nM)-induced cAMP response, SGS-72 cells was 8.01 -log M and the pIC50, antagonism of PTHrP(1-36)-induced cAMP response, SGS-72 cells was 8.01 -log M.
With “Nle8, dW12, W23, C37-LA-PTH(5-37)-1974 (peptide)”, the IC50 (nanomolar value of the pIC50), antagonism of PTH(1-34)-induced cAMP response, GP-2.3 cells is 224 nM; the IC50, antagonism of PTH(1-34) (0.3 nM)-induced cAMP response, SGS-72 cells turned out to be 4.39 nM; the pIC50, antagonism of PTH(1-34) (0.3 nM)-induced cAMP response, SGS-72 cells was 8.36 -log M; the pIC50, antagonism of PTH(1-34)-induced cAMP response (GloSensor), GP-2.3 cells is 6.65 -log M.
As for “Nle8, dW12, W23, Y36-LA-PTH(5-36)-1954 (peptide)”, the IC50, antagonism of PTH(1-34) (0.3 nM)-induced cAMP response, SGS-72 cells is 1.75 nM and the pIC50, antagonism of PTH(1-34) (0.3 nM)-induced cAMP response, SGS-72 cells was 8.76 -log M.
“PEG20-Nle8, TMR, dW12, W23, C37-LA-PTH(5-37)-1978 (peptide)” returned an IC50 (nanomolar value of the pIC50), antagonism of PTH(1-34)-induced cAMP response, GP-2.3 cells of 642 nM; an IC50 (nanomolar value of the pIC50), antagonism of PTH(1-34)-induced cAMP response, SGS-72 cells of 21 nM; an IC50 (nanomolar value of the pIC50), antagonism of PTHrP(1-36)-induced cAMP response, SGS-72 cells of 13 nM; an IC50, antagonism of PTH(1-34) (0.3 nM)-induced cAMP response, SGS-72 cells of 24.1 nM. In addition, the IC50, antagonism of PTHrP(1-36) (0.3 nM)-induced cAMP response, SGS-72 cells amounted to 12.9 nM; the pIC50, antagonism of PTH(1-34) (0.3 nM)-induced cAMP response, SGS-72 cells was 7.62 -log M; the pIC50, antagonism of PTH(1-34)-induced cAMP response (GloSensor), GP-2.3 cells is 6.19 -log M; the pIC50, antagonism of PTH(1-34)-induced cAMP response, SGS-72 cells is 7.68 -log M. The pIC50, antagonism of PTHrP(1-36) (0.3 nM)-induced cAMP response, SGS-72 cells was 7.89 -log M and the pIC50, antagonism of PTHrP(1-36)-induced cAMP response, SGS-72 cells is 7.89 -log M.
Turning to “TMR-L11, dW12, W23-LA-PTH(5-36)-2004 (peptide)”, the IC50, antagonism of PTH(1-34) (0.3 nM)-induced cAMP response, SGS-72 cells was 2.13 nM and the pIC50, antagonism of PTH(1-34) (0.3 nM)-induced cAMP response, SGS-72 cells is 8.67 -log M.
The like results for “TMR-L11, dW12, W23-LA-PTH(7-36)-2002 (peptide)” were, in that order, 1.49 nM and 8.83 -log M.
On the same counts, the results for “TMR-Nle8, L11, dW12, W23-LA-PTH(5-36)-2000 (peptide)” are 3.02 nM and 8.52 -log M.
On the same counts, the results for “TMR-Nle8, L11, dW12, W23-LA-PTH(7-36)-1998 (peptide)” are 2.21 nM and 8.65 -log M.
On to “TMR-Nle8, dW12, W23-LA-PTH(7-36)-1993 (peptide)”, for which the IC50, antagonism of PTH(1-34) (0.3 nM)-induced cAMP response, SGS-72 cells was determined as 3.34 nM and the pIC50, antagonism of PTH(1-34) (0.3 nM)-induced cAMP response, SGS-72 cells is 8.48 -log M.
“TMR-dW12, W23, C37-LA-PTH(5-37)-1976 (peptide)”: the IC50 (nanomolar value of the pIC50), antagonism of PTH(1-34)-induced cAMP response, GP-2.3 cells was 1960 nM; the IC50, antagonism of PTH(1-34) (0.3 nM)-induced cAMP response, SGS-72 cells turned out to be 18.5 nM; the pIC50, antagonism of PTH(1-34) (0.3 nM)-induced cAMP response, SGS-72 cells is 7.73 -log M; the pIC50, antagonism of PTH(1-34)-induced cAMP response (GloSensor), GP-2.3 cells was 5.71 -log M.
On the same counts, the results for “TMR-dW12, W23-LA-PTH(5-36)-1953 (peptide)” are 160 nM, 3.23 nM, 8.49 -log M and 6.8 -log M.

For the origin of these results see patent publication US20190119348A1, “PARATHYROID HORMONE RECEPTOR 1 ANTAGONIST AND INVERSE AGONIST POLYPEPTIDES AND METHODS OF THEIR USE” (The General Hospital Corporation, priority 2016, published 2019).
